In general, EC50 refers to the concentration needed to bring the measured effect to its halfway point. The low end stands for higher potency in that assay, the high end for lower potency in that assay.

Starred links: 1 amine or outer side, 2 acyl side, 3 side chain; linkers in the order of their positions; H or OH if unused. Positions of bridges follow the written chain, without caps; N, C: chain ends. Non-standard residues stand in square brackets, D forms with d. Primed or numbered codes have the meaning given here. B5(11) = 2,2-bis(4-pentenyl)glycine = 2-amino-2-(pent-4-en-1-yl)hept-6-enoic acid (stitching residue, bears both staples), C=CCCCC(CCCC=C)(N[*:1])C(=O)[*:2]; B5(4) = 2,2-bis(4-pentenyl)glycine = 2-amino-2-(pent-4-en-1-yl)hept-6-enoic acid (stitching residue), C=CCCCC(CCCC=C)(N[*:1])C(=O)[*:2]; B5(14) = 2-amino-2-(pent-4-en-1-yl)hept-6-enoic acid (bis-pentenylglycine), C=CCCCC(CCCC=C)(N[*:1])C(=O)[*:2]; Phe(3-Cl) = N[C@@H](Cc1cccc(Cl)c1)C(=O)O; Phe(4-Cl) = N[C@@H](Cc1ccc(Cl)cc1)C(=O)O; Phe(4-NH2) = Nc1ccc(C[C@H](N)C(=O)O)cc1; Ala(2-furyl) = N[C@@H](Cc1ccco1)C(=O)O; His(τ-Me) = Cn1cnc(C[C@H](N)C(=O)O)c1; αAllylPro = C=CC[C@@]1(C(=O)O)CCCN1; 3Thi = N[C@@H](Cc1ccsc1)C(=O)O; S8 = C=CCCCCCC[C@](C)(N)C(=O)O

Results on twelve molecules are retold here after patent US20240116985A1 (published 2024).

T1: full-length beta-Catenin (Uniprot ID P35222) (Homo sapiens (Human), UniProt P35222 1-781)
T1 construct: the AlphaScreen used a Histidine (Nickel Chelate) detection kit, so a His tag is likely but not described; also called B-Catenin; bCat
T1 sequence: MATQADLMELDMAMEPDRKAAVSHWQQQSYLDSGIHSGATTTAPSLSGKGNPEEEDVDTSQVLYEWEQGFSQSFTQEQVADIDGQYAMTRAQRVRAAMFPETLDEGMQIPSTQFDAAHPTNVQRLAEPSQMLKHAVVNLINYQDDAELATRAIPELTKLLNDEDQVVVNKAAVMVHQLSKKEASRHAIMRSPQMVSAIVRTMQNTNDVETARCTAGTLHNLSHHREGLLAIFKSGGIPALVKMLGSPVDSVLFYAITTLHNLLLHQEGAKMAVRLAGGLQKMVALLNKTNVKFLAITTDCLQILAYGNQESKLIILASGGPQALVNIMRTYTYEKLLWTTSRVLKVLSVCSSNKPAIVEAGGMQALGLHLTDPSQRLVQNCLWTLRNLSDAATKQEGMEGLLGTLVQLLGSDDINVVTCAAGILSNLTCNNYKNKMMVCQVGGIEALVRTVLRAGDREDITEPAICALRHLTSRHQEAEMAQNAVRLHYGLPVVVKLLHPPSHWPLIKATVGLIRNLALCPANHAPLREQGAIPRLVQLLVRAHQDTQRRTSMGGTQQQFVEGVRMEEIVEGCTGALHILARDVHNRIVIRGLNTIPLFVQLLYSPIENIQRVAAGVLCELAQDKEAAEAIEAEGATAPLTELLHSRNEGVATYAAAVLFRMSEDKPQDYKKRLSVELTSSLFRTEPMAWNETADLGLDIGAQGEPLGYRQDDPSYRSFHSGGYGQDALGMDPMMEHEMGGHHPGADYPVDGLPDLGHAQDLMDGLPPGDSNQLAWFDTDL

B1: I-326 (peptide)
peptide: Ac-[αAllylPro]DA[B5(4)]DDAA[3Thi]V[S8]FWQ-NH2
modifications: staple 1-4, 4-11
notes: Ac-PL3-Asp-Ala-B5-Asp-Asp-Ala-Ala-3Thi-Val-S8-Phe-Trp-Gln-NH2; stapled peptide composition
B2: I-307 (peptide)
peptide: Ac-[αAllylPro]DA[B5(4)]DDAA[Phe(3-Cl)]V[S8]FWQ-NH2
modifications: staple 1-4, 4-11; not fully specified; printed as Ac-PL3-Asp-Ala-B5-Asp-Asp-Ala-Ala-3C1F-Val-S8-Phe-Trp-Gln-NH2
notes: Ac-PL3-Asp-Ala-B5-Asp-Asp-Ala-Ala-3C1F-Val-S8-Phe-Trp-Gln-NH2; stapled peptide composition
B3: I-323 (peptide)
peptide: Ac-[αAllylPro]DA[B5(11)]DDAA[Phe(4-NH2)]V[S8]FWQ-NH2
modifications: staple 1-4, 4-11; not fully specified; printed as Ac-PL3-Asp-Ala-B5-Asp-Asp-Ala-Ala-4AmPhe-Val-S8-Phe-Trp-Gln-NH2
notes: Ac-PL3-Asp-Ala-B5-Asp-Asp-Ala-Ala-4AmPhe-Val-S8-Phe-Trp-Gln-NH2; stapled peptide composition
B4: I-322 (peptide)
peptide: Ac-[αAllylPro]DA[B5(11)]DDAA[Phe(4-NH2)]V[S8]FWQ-NH2
modifications: staple 1-4, 4-11; not fully specified; printed as Ac-PL3-Asp-Ala-B5-Asp-Asp-Ala-Ala-4AmPhe-Val-S8-Phe-Trp-Gln-NH2
notes: as for B3
B5: I-327 (peptide)
peptide: Ac-[αAllylPro]DA[B5(4)]DDAA[Ala(2-furyl)]V[S8]FWQ-NH2
modifications: staple 1-4, 4-11; not fully specified; printed as Ac-PL3-Asp-Ala-B5-Asp-Asp-Ala-Ala-2FurA-Val-S8-Phe-Trp-Gln-NH2
notes: Ac-PL3-Asp-Ala-B5-Asp-Asp-Ala-Ala-2FurA-Val-S8-Phe-Trp-Gln-NH2; stapled peptide composition
B6: I-306 (peptide)
peptide: Ac-[αAllylPro]DA[B5(4)]DDAA[Phe(3-Cl)]V[S8]FWQ-NH2
modifications: staple 1-4, 4-11
notes: as for B2
B7: I-329 (peptide)
peptide: Ac-[αAllylPro]DA[B5(4)]DDAA[His(τ-Me)]V[S8]FWQ-NH2
modifications: staple 1-4, 4-11; not fully specified; printed as Ac-PL3-Asp-Ala-B5-Asp-Asp-Ala-Ala-1meH-Val-S8-Phe-Trp-Gln-NH2
notes: Ac-PL3-Asp-Ala-B5-Asp-Asp-Ala-Ala-1meH-Val-S8-Phe-Trp-Gln-NH2; stapled peptide composition
B8: I-305 (peptide)
peptide: Ac-[αAllylPro]DA[B5(4)]DHAAFV[S8]FWQ-NH2
modifications: staple 1-4, 4-11
notes: Ac-PL3-Asp-Ala-B5-Asp-His-Ala-Ala-Phe-Val-S8-Phe-Trp-Gln-NH2; stapled peptide composition
B9: I-331 (peptide)
peptide: Ac-[αAllylPro]DA[B5(14)]DDAAHV[S8]FWQ-NH2
modifications: staple 1-4, 4-11; not fully specified (residue 9)
notes: Ac-PL3-Asp-Ala-B5-Asp-Asp-Ala-Ala-3meH-Val-S8-Phe-Trp-Gln-NH2; stapled peptide composition
B10: I-330 (peptide)
peptide: Ac-[αAllylPro]DA[B5(4)]DDAA[His(τ-Me)]V[S8]FWQ-NH2
modifications: staple 1-4, 4-11
notes: as for B7
B11: I-304 (peptide)
peptide: Ac-[αAllylPro]DA[B5(4)]DHAAFV[S8]FWQ-NH2
modifications: staple 1-4, 4-11
notes: as for B8
B12: I-308 (peptide)
peptide: Ac-[αAllylPro]DA[B5(4)]DDAA[Phe(4-Cl)]V[S8]FWQ-NH2
modifications: staple 1-4, 4-11; not fully specified; printed as Ac-PL3-Asp-Ala-B5-Asp-Asp-Ala-Ala-4C1F-Val-S8-Phe-Trp-Gln-NH2
notes: Ac-PL3-Asp-Ala-B5-Asp-Asp-Ala-Ala-4C1F-Val-S8-Phe-Trp-Gln-NH2; stapled peptide composition

The target of this experiment is T1, full-length beta-Catenin (Uniprot ID …). Nature of the experiment: FP competition vs 5FAM-TCF4(10-53) probe on full-length beta-catenin. Here is the method: The plate was incubated protected from light for 60 minutes at 20° C. prior to read. Reads were performed on a CLARIOstar plate reader (BMG Labtech) in duplicate, and data were fitted to a 1:1 binding model with hill slope using an in-house script. All provided concentrations are final concentrations.
The molecule B1 returned a concentration giving a half-maximal response (EC50) of 1.75 µM.

With B2, a half-maximal effect (EC50) was put at 4.2 µM.

In the case of B3, the EC50 amounted to 3.47 µM.

The molecule B4 showed an EC50 of 5 µM.

The molecule B5 displayed an EC50 of 4.72 µM.

Turning to B6, the midpoint of the response, the EC50, lay at 5 µM.

B7 had a 50% effective concentration (EC50) of 5 µM.

In turn, B8 came in with a concentration for a half-maximal effect (EC50) of 3.98 µM.

For B9, the response was half-maximal at 5 µM (EC50).

Molecule B10 displayed an EC50 of 5 µM.

On to B11, for which the 50% effective concentration (EC50) came to 5 µM.

As to B12, the concentration for a half-maximal effect (EC50) is 5 µM.
